The target of test [1] is p195-212 presented by antigen-presenting cells of MG patients (HLA class II) (human).
For test [2], the target named is p259-271 presented by antigen-presenting cells of MG patients (HLA class II) (human).
For test [3], the system named is peripheral blood lymphocytes (PBL) of myasthenia gravis patients. The settings on record: 96 h.
Protocol: Peripheral blood lymphocytes (PBL) of myasthenia gravis patients and of the appropriate control donors (2×10^5 cells/well) were assayed in microtiter plates in 0.2 ml enriched medium containing 10% autologous serum, in the presence of different doses of the peptides p195-212 and the analog 207Ala for 96 h, followed by an overnight pulse with 0.5 μCi of ^3 H-thymidine. Cells were harvested and radioactivity determined. Inhibition of the proliferative responses was done by adding different doses of 207Ala into the incubation mixture at the same time as the pathogenic peptide p195-212.
The target in test [4] is MHC class II on human antigen presenting cells.
For test [5], the target named is MHC class II of SJL mice (on antigen presenting cells).
For test [6] the target is unchanged. The experiment in a line: flow cytometry, biotinylated peptide on SJL antigen presenting cells, PE-streptavidin.
Test [7] addresses MHC Class II molecules of BALB/c mice (on syngeneic spleen cells used as antigen-presenting cells).
For test [8] the target is unchanged. This is another data set of the same source.
Test [9] shares this target. This is another data set of the same source.

The values that follow come from patent US6066621A, “Synthetic peptides for the treatment of myasthenia gravis” (Yeda Research and Development Co. Ltd., priority 1995, dated 2000).

Where no end group is shown, it is not given here. The star is where a group is joined. Biotin = O=C1N[C@H]2[C@H](CS[C@H]2CCCCC(=O)*)N1; Ahx = NCCCCCC(=O)O A value given as a limit tells only on which side of the number the result lay.

Protocol for T cell line TCSJL195-212: T cell lines and clones specific to p195-212 were established from lymph node cells of high (SJL) responder mouse strain by the method described by Brocke et al. (1990a), supra, and designated TCSJL195-212 line (Mozes, E. et al. (1991), supra; see also Kirshner et al. (1994), supra).
Cells (10^4 per well) of the T cell Line TCSJL195-212 or TCBALB/c259-271 were incubated in the presence of irradiated syngeneic spleen cells (0.5×10^6), either p195-212 or p259-271 (10 μM) and various concentrations of the dual epitope analogs 207Ala-262Lys or 262Lys-207Ala for 48 h. Thereafter, ^3 H-thymidine was added and 16 h later plates we harvested.

With “peripheral blood lymphocytes (PBL) of myasthenia gravis patients (cells without a defined receptor)”, the proliferative response of PBL, stimulation index (SI) (stimulation index) in test [1] turned out to be 6.3; in test [2], 4.1.

With DTPYLDITYHFVAQRLPL [207Ala], in the test with T cell line TCSJL195-212, the “inhibition of the proliferative response of the TCSJL195-212 line to p195-212” value is listed as “more than 99%”. Further, the “inhibition of proliferative responses of PBL, all three patients” value in test [3] is reported as 77-100%.

Molecule VIVDLIPSTSSAV [262Asp analog of p259-271] showed a % inhibition of the p259-271 induced proliferative response of PBL (three MG patients) in test [4] of 78 % inhibition.

Turning to DTPYLDITYHFVAQRLPL [207Ala analog of p195-212], the inhibition of the p195-212 specific proliferative response of TCSJL195-212 in test [5] is above 99 % inhibition.

As for VIVELIPDTSSAV [266Asp analog of p259-271], the % inhibition of the p259-271 induced proliferative response of PBL (three MG patients) in [4] was 85.6 % inhibition.

{Biotin-Ahx}-VIVKLIPSTSSAVDTPYLDITYHFVAQRLPL [biotinylated dual analog 262Lys-207Ala]: in test [6], the fold affinity against 207Ala-262Lys is 10 fold.

Turning to VIVKLIPSTSSAV [262Lys analog of p259-271], the inhibition of the helper activity of TCBALB/c259-271 (p259-271 specific antibody production) in test [7] was below 80 % inhibition. This molecule yielded an inhibition of the proliferative response of lymph node cells of p259-271 immunized BALB/c mice to p259-271 in test [8] below 64.7 % inhibition. In test [4], this molecule came in with a % inhibition of the p259-271 induced proliferative response of PBL (three MG patients) of 100 % inhibition. In addition, the % of inhibition of the p259-271 specific proliferative response of TCBALB/c259-271 in test [9] was below 93 % inhibition.
